{"source": "patent US11673947B2", "about": "“Target tissue-specific antigen-binding molecule” (Chugai Seiyaku Kabushiki Kaisha, priority 2012, dated 2023)", "molecules": {"B1": {"name": "PF1: IL-6R-binding clone prepared as a negative control; SEQ ID NOs: 48 and 49 (antibody, V domains shown)", "VH": "QVQLQESGPGLVKPSETLSLTCAVSGYSISDDHAWSWVRQPPGEGLEWIGYISYSGITNYNPSLKGRVTISRDTSKNQFSLKLSSVTAADTAAYYCARVLARITAMDYWGEGTLVTVSS", "VL": "DIQMTQSPSSLSASVGDSVTITCQASQDISSYLNWYQQKPGKAPELLIYYGSELHSGVPSRFSGSGSGTDFTFTISSLEAEDAATYYCGQGNRLPYTFGQGTKVEIE"}, "B2": {"name": "6RNMSC1-3_G02: antibody that binds to hIL-6R in the presence of ATP; SEQ ID NOs: 88 and 89 (antibody, listed as Homo sapiens, V domains shown)", "VH": "EVQLVQSGGDLVKPGGSLRLSCAASGFTFSNYAMHWVRQAPGKGLEWVAVVSYDGSNKYYADSVKGRFTISRDNSKNTLYLQMNSLRAEDTAVYYCARLVPSSGYPGRFDPWGQGTLVTVSS", "VL": "NIQMTQSPSSLSASVGDRVTITCRASQSISSSLNWYQQIPGKAPKLLIYAASSLQSGVPSRFSGSGSGTDFTLTISSLQPEDFASYYCQQSYSAWTFGQGTKVEIK"}, "B3": {"name": "6RRLSA1-6_037: clone with antigen-binding activity to human IL-6 receptor in the absence of ATP and adenosine (antibody, V domains shown)", "VH": "EVQLVESGGDLVKPGGGLRLSCAASGFTFSTYTMHWVRQAPGKGLEWVSSISSRSGHRHYADSVKGRFTISRDNAKNSLYLQMNSLRAEDTAVYYCARYGKKGNRNWVFDYWGQGTLVTVSS", "VL": "QSALTQPPSASGSPGQTVTISCTGTSTDVGGYNYVSWYQQHPGKAPKLMIYSTSKRPSGVPDRFSGSKSGNTASLTVSGLQAEDEADYFCSTTTYAKNPVFGGGTKLTVL"}, "B4": {"name": "6RRLSA1-6_045: clone with antigen-binding activity to human IL-6 receptor in the absence of ATP and adenosine (antibody, V domains shown)", "VH": "EVQLVESGGDLVKPGGGLRLSCAASGFTFSGYTMHWVRQAPGKGLEWVSSISSRSNHRSYADSVKGRFTISRDNAKNSLYLQMNSLRAEDTAVYYCARFGKRFDRNWVFDYWGQGTLVTVSS", "VL": "QSALTQPPSASGSPGQTVTISCTGTSTDVGTYNYVSWYQQHPGKAPKLMIYKTSKRPSGVPDRFSGSKSGNTASLTVSGLQAEDEADYFCSSRRYRRSLSFGGGTKLTVL"}}, "key": {"[1]": {"assay": "Competitive phage ELISA, inhibition of binding to biotin-labeled antigens by ATP", "settings": "ATP from an equal amount up to 10000 times that of the antigen", "method": "ATNLSA1-4_D12 and PF1 were each diluted with TBS and subjected to ELISA by the following procedure.\nA StreptaWell 96 microtiter plate (Roche) was coated at room temperature for one hour with 100 μl of TBS containing biotin-labeled antigens (a mixture of 5′-adenosine-PEG-biotin and ATP-PEG-biotin). After the antigens were removed by washing each well of the plate with TBST, the wells were blocked with 250 μl of 2% skim milk/TBS for one hour or more. 2% skim milk/TBS was removed, and then the prepared, purified phages were added to each well. The plate was allowed to stand at room temperature for one hour to allow binding of the antibody-displaying phages to the antigens in each well. […] For the competition of the immobilized antigen with ATP, the plate was allowed to stand at room temperature for one hour. Then, after TBST wash, an HRP-conjugated anti-M13 antibody (Amersham Pharmacia Biotech) diluted with TBS was added to each well. The plate was incubated for one hour. Following TBST wash, the TMB single solution (ZYMED) was added to each well. The chromogenic reaction in the solution of each well was terminated by adding sulfuric acid. Then, the developed color was assessed by measuring absorbance at 450 nm."}, "[2]": {"target": "T1, hIL-6R (Homo sapiens, UniProt P08887)", "T1 sequence (P08887 20-355 limits assumed)": "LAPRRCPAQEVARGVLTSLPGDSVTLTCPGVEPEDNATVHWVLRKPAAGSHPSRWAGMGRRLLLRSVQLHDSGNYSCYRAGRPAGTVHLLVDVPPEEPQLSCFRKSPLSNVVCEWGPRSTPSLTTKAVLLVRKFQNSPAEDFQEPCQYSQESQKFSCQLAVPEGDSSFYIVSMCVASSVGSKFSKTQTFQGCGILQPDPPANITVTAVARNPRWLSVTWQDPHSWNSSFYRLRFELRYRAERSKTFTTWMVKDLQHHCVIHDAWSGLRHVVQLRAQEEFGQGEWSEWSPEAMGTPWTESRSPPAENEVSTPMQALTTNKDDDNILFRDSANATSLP", "assay": "IgG ELISA, binding to hIL-6R in the presence or absence of each small molecule, amino acid or amino acid metabolite", "method": "Three types of antibodies obtained: 6RNMSC1-2_F02 and 6RNMSC1-3_G02, and GC413 were subjected to ELISA under the nine conditions described in Table 3. Meanwhile, each small molecule was appropriately prepared at the concentrations shown in Table 3 using the buffers indicated in Table 19. The antigen used was biotin-labeled hIL-6R.\nFirst, a StreptaWell 96 microtiter plate (Roche) was coated at room temperature for one hour or more with 100 μl of PBS containing biotin-labeled hIL-6R. After washing with Wash buffer to remove unbound biotin-labeled hIL-6R from the plate, each well was blocked for one hour or more with 250 μl of Blocking Buffer. After Blocking Buffer was removed from each well, the purified IgGs were prepared to 2.5 μg/ml in Sample Buffer containing small molecules at the final concentrations shown in Table 3, and each was aliquoted at 100 μl into the plate. The plate was allowed to stand at room temperature for one hour to allow binding of each IgG to biotin-labeled hIL-6R in each well. After washing with Wash Buffer containing small molecules at the final concentrations shown in Table 3, an HRP-conjugated anti-human IgG antibody (BIOSOURCE) diluted with Sample Buffer containing the same small molecules was added to each well. The plate was incubated for one hour. Following wash with Wash Buffer containing each small molecule, the TMB single solution (ZYMED) was added to each well. The chromogenic reaction in the solution of each well was terminated by adding sulfuric acid. Then, the developed color was assessed by measuring absorbance at 450 nm.\n6RNMSC1-2_F02 described in Example 14, which has antigen-binding activity in the presence of kynurenine, and negative control GC413 were subjected to ELISA under the seven conditions described in Table 18. Meanwhile, each small molecule was appropriately prepared at the concentrations shown in Table 18 using the buffers indicated in Table 4. The antigen used was biotin-labeled hIL-6R. ELISA was carried out using the method described in Example 11."}, "[3]": {"target": "T1, hIL-6R", "assay": "Phage ELISA, binding to hIL-6R in the presence or absence of SC", "settings": "in the presence of SC", "method": "Culture supernatants containing phages were collected according to a conventional method (Methods Mol. Biol. (2002) 178, 133-145) from single colonies of E. coli obtained as described in (14-2). Phages purified by the method described in (2-4) were subjected to ELISA by the following procedure. A StreptaWell 96 microtiter plate (Roche) was coated overnight with 100 μl of TBS containing biotin-labeled hIL-6R. After biotin-labeled hIL-6R was removed by washing each well of the plate with TBST, the wells were blocked with 250 μl of 2% skim milk/TBS for one hour or more. 2% skim milk/TBS was removed, and then the prepared, purified phages were added to each well. The plate was allowed to stand at room temperature for one hour to allow binding of antibody-displaying phages to biotin-labeled hIL-6R in each well in the presence or absence of SC. After washing with TBST or SC/TBST, an HRP-conjugated anti-M13 antibody (Amersham Pharmacia Biotech) diluted with TBS or SC/TBS was added to each well. The plate was incubated for one hour. Following wash with TBST or SC/TBST, the TMB single solution (ZYMED) was added to each well. The chromogenic reaction in the solution of each well was terminated by adding sulfuric acid. Then, the developed color was assessed by measuring absorbance at 450 nm."}, "[4]": {"target": "T2, human IL6 receptor (Homo sapiens, UniProt P08887)", "T2 sequence (P08887 20-357 limits assumed)": "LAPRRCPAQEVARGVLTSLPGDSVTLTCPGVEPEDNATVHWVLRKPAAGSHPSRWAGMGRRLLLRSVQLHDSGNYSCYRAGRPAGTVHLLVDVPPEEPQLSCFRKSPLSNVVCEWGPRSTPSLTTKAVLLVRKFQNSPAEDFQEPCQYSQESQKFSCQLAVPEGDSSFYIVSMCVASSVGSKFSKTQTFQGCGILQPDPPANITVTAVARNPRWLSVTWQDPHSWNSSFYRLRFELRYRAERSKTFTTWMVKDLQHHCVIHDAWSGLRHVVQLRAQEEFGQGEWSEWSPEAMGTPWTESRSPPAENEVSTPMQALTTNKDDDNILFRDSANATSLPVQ", "assay": "Phage ELISA, binding to human IL6 receptor in the presence or absence of adenosine and/or ATP", "settings": "with or without 10 mM adenosine and ATP", "method": "Phage-containing culture supernatants were collected according to a conventional method (Methods Mol. Biol. (2002) 178, 133-145) from single colonies of E. coli obtained by the method described above. The collected culture supernatants were treated by ultrafiltration using NucleoFast 96 (MACHERY-NAGEL). 100 μl of the culture supernatants were added to each well of NucleoFast 96, and it was centrifuged (4500 g for 45 minutes) to remove flow through. After addition of 100 μl of H2O, the NucleoFast 96 was washed by centrifugation (4500 g for 30 minutes). Finally, 100 μl of TBS was added, and the NucleoFast 96 was allowed to stand for five minutes at room temperature. A phage suspension was collected from the supernatant in each well of the NucleoFast 96.\nThe purified phages, to which TBS or (adenosine+ATP)/TBS was added, were subjected to ELISA by the following procedure. A StreptaWell 96 microtiter plate (Roche) was coated overnight with 100 μl of TBS containing biotin-labeled antigen. […] Then, the developed color was assessed by measuring absorbance at 450 nm. […]\nFirst, a StreptaWell 96 microtiter plate (Roche) was coated at room temperature for one hour or more with 100 μl of TBS containing a biotin-labeled antigen. […] Then, the developed color was assessed by measuring absorbance at 450 nm (FIGS. 25, 26, and 27). […]"}}}
{"molecule": "B1", "values": [{"measurement": "antigen binding (negative control)", "setting": "[1]", "value": "not detected regardless of the ATP concentration"}]}
{"molecule": "B2", "values": [{"measurement": "absorbance under condition 1 compared to condition 8", "setting": "[2]; condition 1 (1 mM ATP-Na)", "value": "the same"}, {"measurement": "absorbance under condition 9 as compared to condition 8", "setting": "[2]; condition 9 (in the absence of small molecules) vs condition 8 (complete small molecule cocktail solution)", "value": "markedly lower"}, {"measurement": "absorbance under other conditions", "setting": "[2]; remaining conditions of Table 3", "value": "markedly lower"}, {"measurement": "binding activity to hIL-6R in the presence of a small molecule cocktail (phage ELISA)", "setting": "[3]", "value": "have binding activity"}]}
{"molecule": "B3", "values": [{"measurement": "antigen-binding activity to human IL-6 receptor in the absence of ATP and adenosine", "setting": "[4]", "value": "had an antigen-binding activity"}]}
{"molecule": "B4", "values": [{"measurement": "antigen-binding activity to human IL-6 receptor in the absence of ATP and adenosine", "setting": "[4]", "value": "had an antigen-binding activity"}]}
